The target in the experiment is polyclonal antibodies (lot RF29), raised in rabbits against natural isolate of UK114. Kind of experiment: competition ELISA: soluble antigen titrated against rabbit antiserum (1:10,000) on plates coated with natural UK114; apparent Ka is the reciprocal of the antigen concentration at the A50 point.

B1: recombinant UK114 (E.coli-derived, SEQ ID NO:1) (protein)
chain: SSLVRRIISTAKAPAAIGPYSQAVLVDRTIYISGQLGMDPASGQLVPGGVVEEAKQALTNIGEILKAAGCDFTNVVKATVLLADINDFSAVNDVYKQYFQSSFPARAAYQVAALPKGGRVEIEAIAVQGPLTTASV
Consider B1, for which the Ka was 4.9e+08 M⁻¹.

(Values after patent US20020193308A1.)
